The target of this assay is MHCI antigen presented on MNs. Put plainly: cell-based or functional assay.

The substance “killer cell immunoglobulin-like receptor 3DL2 (KIR3DL2) (from UniProt P43630 22-455)” had an MN death on co-culture with kir3dl2 shRNA treated ALS astrocytes, day 7 of 50%.
